Measurements taken from US20200055939A1 (Genentech, published 2020).

T1: S287A
T1 construct: % monomer 90.34; also called MICA*008.mIgG2a S287A
T1 chain: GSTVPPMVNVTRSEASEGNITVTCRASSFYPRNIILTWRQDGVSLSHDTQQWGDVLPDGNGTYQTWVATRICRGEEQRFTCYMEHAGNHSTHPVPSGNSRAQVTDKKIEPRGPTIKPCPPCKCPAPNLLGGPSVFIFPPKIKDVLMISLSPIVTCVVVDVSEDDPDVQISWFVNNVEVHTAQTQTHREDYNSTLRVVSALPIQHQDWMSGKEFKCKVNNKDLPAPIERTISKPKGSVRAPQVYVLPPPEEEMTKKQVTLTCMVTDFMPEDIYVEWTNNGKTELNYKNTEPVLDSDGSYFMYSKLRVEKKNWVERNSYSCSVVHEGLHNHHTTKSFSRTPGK

T2: R279A
T2 construct: % monomer 95.2; also called MICA*008.mIgG2a R279A
T2 chain: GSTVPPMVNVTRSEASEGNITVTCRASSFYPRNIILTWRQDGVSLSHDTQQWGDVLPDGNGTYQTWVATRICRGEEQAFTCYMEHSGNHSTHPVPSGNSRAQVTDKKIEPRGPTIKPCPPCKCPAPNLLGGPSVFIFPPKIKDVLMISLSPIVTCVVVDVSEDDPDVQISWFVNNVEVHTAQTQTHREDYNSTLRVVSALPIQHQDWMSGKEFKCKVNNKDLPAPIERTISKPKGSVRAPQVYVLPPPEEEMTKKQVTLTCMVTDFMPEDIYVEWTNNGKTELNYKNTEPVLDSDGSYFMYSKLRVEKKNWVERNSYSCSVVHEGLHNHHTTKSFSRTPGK

T3: H290A
T3 construct: % monomer 90.37; also called MICA*008.mIgG2a H290A
T3 chain: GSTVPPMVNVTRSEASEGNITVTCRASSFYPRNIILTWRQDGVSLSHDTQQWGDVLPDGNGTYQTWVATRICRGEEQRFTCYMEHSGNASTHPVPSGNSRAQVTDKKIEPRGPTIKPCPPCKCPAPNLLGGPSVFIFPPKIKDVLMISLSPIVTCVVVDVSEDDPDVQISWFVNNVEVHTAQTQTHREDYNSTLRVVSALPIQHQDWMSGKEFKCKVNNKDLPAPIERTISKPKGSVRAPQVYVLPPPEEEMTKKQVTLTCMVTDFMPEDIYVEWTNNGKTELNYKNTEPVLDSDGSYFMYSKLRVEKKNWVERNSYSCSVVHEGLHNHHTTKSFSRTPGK

T4: S297A
T4 construct: % monomer 89.24; also called MICA*008.mIgG2a S297A
T4 chain: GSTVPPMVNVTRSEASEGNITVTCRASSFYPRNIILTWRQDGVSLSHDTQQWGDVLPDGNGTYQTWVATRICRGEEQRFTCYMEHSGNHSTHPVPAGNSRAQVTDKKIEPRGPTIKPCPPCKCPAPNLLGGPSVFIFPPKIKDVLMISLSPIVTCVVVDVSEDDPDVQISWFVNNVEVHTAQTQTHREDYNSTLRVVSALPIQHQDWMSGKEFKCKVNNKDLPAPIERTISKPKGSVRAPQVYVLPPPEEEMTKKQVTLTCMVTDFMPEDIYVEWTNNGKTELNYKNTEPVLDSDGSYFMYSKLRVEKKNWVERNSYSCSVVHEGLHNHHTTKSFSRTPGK

T5: G288A
T5 construct: % monomer 95.3; also called MICA*008.mIgG2a G288A
T5 chain: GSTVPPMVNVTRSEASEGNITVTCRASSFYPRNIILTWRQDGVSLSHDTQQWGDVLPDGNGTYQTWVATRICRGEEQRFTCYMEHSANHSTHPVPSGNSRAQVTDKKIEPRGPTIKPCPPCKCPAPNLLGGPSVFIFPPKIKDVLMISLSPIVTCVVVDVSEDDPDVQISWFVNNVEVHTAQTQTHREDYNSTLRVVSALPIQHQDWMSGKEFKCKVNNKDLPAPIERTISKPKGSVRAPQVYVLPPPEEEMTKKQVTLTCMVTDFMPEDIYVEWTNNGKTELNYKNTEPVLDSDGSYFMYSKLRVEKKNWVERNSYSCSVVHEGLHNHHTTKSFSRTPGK

T6: T238A
T6 construct: % monomer 96; also called MICA*008.mIgG2a T238A
T6 chain: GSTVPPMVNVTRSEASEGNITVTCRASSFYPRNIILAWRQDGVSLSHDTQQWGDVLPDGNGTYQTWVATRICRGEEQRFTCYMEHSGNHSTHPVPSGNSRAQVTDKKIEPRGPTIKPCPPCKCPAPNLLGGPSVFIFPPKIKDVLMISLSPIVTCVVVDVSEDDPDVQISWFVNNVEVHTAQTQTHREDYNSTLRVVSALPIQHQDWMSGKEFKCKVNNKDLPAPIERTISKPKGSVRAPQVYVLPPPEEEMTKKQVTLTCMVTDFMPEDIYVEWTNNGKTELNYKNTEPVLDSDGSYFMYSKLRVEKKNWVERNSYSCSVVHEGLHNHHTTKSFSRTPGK

T7: Q278A
T7 construct: % monomer 92.32; also called MICA*008.mIgG2a Q278A
T7 chain: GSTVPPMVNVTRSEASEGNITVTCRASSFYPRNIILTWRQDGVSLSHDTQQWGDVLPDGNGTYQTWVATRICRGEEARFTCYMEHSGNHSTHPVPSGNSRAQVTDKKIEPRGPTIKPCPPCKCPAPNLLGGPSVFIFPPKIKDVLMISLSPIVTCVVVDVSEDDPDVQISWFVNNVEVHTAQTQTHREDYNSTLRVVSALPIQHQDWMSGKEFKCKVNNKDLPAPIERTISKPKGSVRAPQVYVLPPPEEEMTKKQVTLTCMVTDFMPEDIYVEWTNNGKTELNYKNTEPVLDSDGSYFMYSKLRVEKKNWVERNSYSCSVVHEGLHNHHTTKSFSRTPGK


Tests used:
Experiment in all cases: SPR, Fab over captured MICA*008.mIgG2a Ala variant; KD relative to wild type
[1] = target: T1, S287A
[2] = target: T2, R279A
[3] = target: T3, H290A
[4] = target: T4, S297A
[5] = target: T5, G288A
[6] = target: T6, T238A
[7] = target: T7, Q278A

Row | Binder | fold-decrease in affinity [1] | fold-decrease in affinity [2] | fold-decrease in affinity [3] | fold-decrease in affinity [4] | fold-decrease in affinity [5] | fold-decrease in affinity [6] | fold-decrease in affinity [7]
1 | 6F8.7 Fab (Fab, V domains shown) VH: DVQLQGSGPGLVKPSQSLSLTCSVTGYSITNDYYWNWIRQFPGNKLEWMGFISFGGSNNYNPSLKNRISITRDTSKNQFFLKLSSVTTEDTATYYCARYDGRGAWFAYWAQGTLVTVSA VL: DIQMTQSPASLSASVGETVTITCRASGNIHNYLAWYQQKQGKSPQLLVYDAITLADGVPSRFSGSGSGTQYSLKINSLQPEDFGNYYCQHFWSFPLTFGAGTKVEIK | 1.1 | 4.5 | 8.4 | 1 | 1 | 0.1 | 0.5
2 | 7D4.6 Fab (Fab, V domains shown) VH: DVQLQESGPGLVKPSQSLSLTCTVTGYSITSDYAWNWIRQFPRNKLEWMGYINYSGTTNYNPSLKSRISITRDTSKNQFFLQLISVTTEDTATYYCSYYRYDGAWFPYWGQGTLVTVSA VL: DIQMTQSPASLSASVGETVTITCRASGNIHNYLAWYQQKQGKSPQLLVYNAIMLADGVPSRFSASGSGTQYSLKINSLQPEDFGSYYCQHFWSFPLTFGAGTKVEIK | 1.3 | 5.1 | 8.8 | 1.1 | 0.8 | 0.1 | 4.9
3 | 2E5.2.3 Fab (Fab, V domains shown) VH: QGQMQQSGAELVKPGASVKLSCKTSGFTFSDNYISWLKQKPGQSLEWIAWIYAGTGGTSYNQKFTAKAQLTVDTSSSTAYMQFSSLTTEDSAIYYCARHDYYGTSGAWFAYWGQGTLVTVSA VL: DVLMTQTPLSLPVSLGDQASLSCRSSQNIVHINGNTYLEWYLQKPGQSPKLLIYKVSNRFSGVPDRFSGSGSGTDFTLKISRVEAEDLGVYYCFQGSHVPWTFGGGTKVEIK | 1 | 0.8 | 0.8 | 1.2 | 0.6 | 1.3 | 1
4 | 1D5 Fab (Fab, V domains shown, Expressed in E. coli as chimera of murine variable and human constant domains; not shown: human IgG1 CH1 constant domain; human kappa CL constant domain) VH: EIQLQQSGPELVKPGASVKVSCKASGYAFTSQNIYWVKQSHGKSLEWIGYIEPYNVVPMYNPKFKGKATLTVDKSSSSAYIHLNSLTSEDSAIYYCARSGSSNFDYWGQGTTLTVSS VL: EIILTQSPTTMAASPGEKITITCSASSSISSHYLHWYQQKSGFSPKLLIYRTSNLASGVPARFSGSGSGTSYSLTIGTMEAEDVATYYCQQGSSLPLTFGAGTKVEIK | 4.9 |  |  | 0.05 | 1 | 0.4 | 0.7
